From patent publication US20020081614, “Functional genomics using zinc finger proteins” (Sangamo BioSciences, Inc., published 2002)

Experiments:
[1] = system: M6-111S ZFP-KRAB (pcK-M6-111S, printed pcK-M6-11S) (synthetic construct); assay: cell_activity; conditions: cotransfected luciferase reporter; about 40% repression of endogenous VEGF
[2] = system: M6-111S ZFP-VP16 (pcV-M6-111S) (synthetic construct); assay: cell_activity; conditions: 293 cells; target printed ATGGGGGTC in Table 1 but ATGGGGGTG in p236 and p241
[3] = system: M6-1878S ZFP-VP16 (pcV-M6-1878S) (synthetic construct); assay: cell_activity; conditions: 293 cells; reporter pGLPVFH, table title endogenous VEGF; location -536
[4] = system: M6-120S ZFP-VP16 (pcV-M6-120S) (synthetic construct); assay: cell_activity; conditions: 293 cells; reporter pGLPVFH, table title endogenous VEGF; location -2243
[5] = system: M6-2009S ZFP-VP16 (pcV-M6-2009S, also written M6-2009A) (synthetic construct); assay: cell_activity; conditions: 293 cells; reporter pGLPVFH, table title endogenous VEGF; location -363
VF471A-VP16 (pcV-VF471A) = biological target: T1, VF471A-VP16 (pcV-VF471A) (synthetic construct); assay: cell_activity; luciferase reporter in 293 cells, vs pcV-RAN
T1 chain: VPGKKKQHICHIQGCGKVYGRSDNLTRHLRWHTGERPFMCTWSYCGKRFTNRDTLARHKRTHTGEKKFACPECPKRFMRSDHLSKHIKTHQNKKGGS
Method: All plasmid DNA was prepared using Qiagen plasmid purification kits. The human embryonic kidney 293 cells were seeded into each well of a 6-well plate with a density to reach approximately 70% confluence the next day. Cells were co-transfected with 50 ng effector DNA (ZFP-expression plasmid), 900 ng reporter DNA and 100 ng pCMV-LacZ DNA using either Lipofectamine (GIBCO-BRL, MD) or GenePORTER (Gene Therapy Systems Inc, CA) transfection reagent. The co-expressed β-galactosidase activity was used a control to normalize the luciferase activity. Cell lysates were harvested 40 to 48 hours after transfection. Luciferase assays were performed using the Dual-Light Luciferase and β-galactosidase Reporter Assay System (Tropix, MA).
When the VP16 domain was replaced with a peptide, which has no transcription regulation activity, this zinc finger protein (pcV-VF471A-cat) lost its activity of trans-activating the luciferase gene. […] Therefore, the DNA binding domain (VF471A ZFP) combined with the regulation domain (VP16) in this example were able to turn on the gene at an appropriate target sites.

Molecule: ATGGGGGTG (double strand) [M6-111S site]
- activity [1]: 80 % repression
- activity (fold activation) [2]: 4.1

Molecule: GAGTGTGTG (double strand) [M6-1878S site]
- activity (fold activation) [3]: 4.2

Molecule: GGGGGTGCC (double strand) [M6-120S site]
- activity (fold activation) [4]: 13.8

Molecule: GAAGGGGGC (double strand) [M6-2009S site]
- activity (fold activation) [5]: 4.5

B1: reporter with three tandem M6-1892S sites (pGLP-VF471x3) (dsDNA)
DNA 1: GGGGTTGAG
DNA 2: CTCAACCCC
- activity (VF471A-VP16 (pcV-VF471A)): 8 fold activation
